From patent US9926369B2, “Methods for treating hepatocellular cancer by administering an anti-Ang-2 antibody” (Regeneron Pharmaceuticals, Inc., priority 2009, dated 2018)

What was measured:
Dimeric Human Ang-2FD = biological target: T1, Dimeric Human Ang-2FD (Homo sapiens, UniProt O15123); assay: Surface plasmon resonance binding to dimeric human Ang-2FD conjugated to human IgG1; details: SPR, room temperature
T1 sequence (O15123 282-496): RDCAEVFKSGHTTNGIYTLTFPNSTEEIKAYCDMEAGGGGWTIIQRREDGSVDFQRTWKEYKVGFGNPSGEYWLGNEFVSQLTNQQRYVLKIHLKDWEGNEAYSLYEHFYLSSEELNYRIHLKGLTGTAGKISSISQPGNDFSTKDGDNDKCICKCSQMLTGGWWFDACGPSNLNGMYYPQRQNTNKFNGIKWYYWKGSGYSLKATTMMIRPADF
Method: Equilibrium dissociation constants (KD values) for the binding of selected purified Ang-2 antibodies to dimeric fibrinogen-like domain of human (SEQ ID NO: 519), mouse (Mus musculus; SEQ ID NO: 520) and monkey (Macca fascicularis; SEQ ID NO: 521) Ang-2 (Ang-2FD) conjugated to human IgG1 (SEQ ID NO:528) were determined by surface kinetics using a real-time biosensor surface plasmon resonance assay. Antibody was captured on a goat anti-mouse IgG polyclonal antibody surface, a goat anti-human κ polyclonal antibody (Southern Biotech, Birmingham, Ala.) surface or a goat anti-human IgG polyclonal antibody (Jackson Immuno Research Lab, West Grove, Pa.) surface created through direct amine coupling to a BIACORE™ CM5 sensor chip to form a captured antibody surface. Varying concentrations (ranging from 50 nM to 6.25 nM) of protein were injected at 100 μl/min over captured antibody surface for 90 seconds. Antigen-antibody binding and dissociation were monitored in real time at room temperature. Kinetic analysis was performed to calculate KD and half-life of antigen/antibody complex dissociation.
The above experiment was repeated using selected purified anti-Ang-2 antibodies cloned onto human IgG1.

hAng-2FD-mFc N-467-G = biological target: T2, hAng-2FD-mFc N-467-G (Homo sapiens, UniProt O15123, N467G); assay: Ang-2FD-mFc point mutant binding experiment (SPR), N-467-G; details: N-467-G mutant captured; antibody/peptibody at 100 nM; 25° C.
T2 construct: made in house
Text: To further characterize binding between hAng2 and anti-hAng2 mAbs of the invention, seven variant hAng2-FD-mFc proteins were generated, each containing a single point mutation. Amino acids selected for mutation were based on the difference in sequence between hAng-2 and hAng-1 in the region that interacts with hTie-2 (FIG. 1). In particular, amino acids within the fibrinogen-like domain (FD) of Ang-2 which are believed to interact with Tie-2 based on crystal structure analysis, but which differ from the corresponding amino acid in Ang-1, were individually mutated to the corresponding hAng-1 residue. The results of this example indicate the amino acid residues of hAng-2 with which the Ang-2 preferential binding antibodies interact.
In this experiment, each of the seven hAng-2FD-mFc mutant proteins were captured (˜147-283 RU) on an anti-mouse-Fc surface created through direct chemical coupling to a BIACORE™ chip. Then each Ang-2 antibody (or peptibody, as the case may be) at 100 nM was injected over the captured mFc-tagged hAng-2FD protein surface at a flowrate of 50 μl/min for 180 sec, and the dissociation of variant hAng2-FD-mFc and antibody was monitored in real time for 20 min at 25° C.

[1] = biological target: Dimeric Monkey Ang-2FD-hFc; assay: Cross-species SPR binding at 25° C. or 37° C., monkey Ang-2FD-hFc
Method: Additional binding experiments were conducted using selected anti-Ang-2 antibodies at two different temperatures to further assess cross-species affinity. Each selected antibody or control construct was captured at a flow rate of 40 μL/min for 1 minute on a goat anti-human kappa polyclonal antibody surface created through direct chemical coupling to a BIACORE™ chip to form a captured antibody surface. Human, monkey and mouse Ang-2FD-Fc at a concentration of 25 nM or 0.78 nM was injected over the captured antibody surface at a flowrate of 60 μL/min for 3 minutes, and antigen-antibody dissociation was monitored in real time for 20 minutes at either 25° C. or 37° C.

[2] = biological target: T3, hAng-1 WT binding to Tie-2 (Homo sapiens, UniProt Q15389); assay: ELISA blocking of full-length hAng-1 WT binding to hTie-2-mFc; type: biochemical; details: 0.6 nM hAng-1-His
T3 construct: Full-length human Ang-2 or Ang-1 protein conjugated to 6× histidine tag (R&D Systems, Minneapolis, Minn.); purchased R&D Systems
T3 sequence (Q15389 20-498 limits assumed): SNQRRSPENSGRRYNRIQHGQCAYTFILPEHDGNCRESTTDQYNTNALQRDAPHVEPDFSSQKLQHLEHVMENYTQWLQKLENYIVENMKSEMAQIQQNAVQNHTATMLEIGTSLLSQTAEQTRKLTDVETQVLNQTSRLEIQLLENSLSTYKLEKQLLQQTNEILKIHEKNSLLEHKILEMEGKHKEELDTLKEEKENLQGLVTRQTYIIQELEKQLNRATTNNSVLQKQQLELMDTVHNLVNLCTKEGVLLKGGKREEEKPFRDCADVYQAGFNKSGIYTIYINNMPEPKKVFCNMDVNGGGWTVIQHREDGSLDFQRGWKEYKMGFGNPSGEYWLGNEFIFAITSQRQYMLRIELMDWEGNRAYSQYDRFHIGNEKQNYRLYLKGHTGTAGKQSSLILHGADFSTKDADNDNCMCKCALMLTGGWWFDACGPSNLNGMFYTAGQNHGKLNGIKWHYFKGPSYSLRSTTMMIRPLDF
Method: The ELISA experiments shown in this Example were conducted in a similar manner to the experiments of Example 5. Briefly, hTie-2-mFc (a chimeric construct consisting of human Tie-2 conjugated to mouse IgG; SEQ ID NO:525) was coated onto 96-well plates at a concentration of 2 μg/ml and incubated overnight followed by washing four times in wash buffer (PBS with 0.05% Tween-20). The plate was then blocked with PBS (Irvine Scientific, Santa Ana, Calif.) containing 0.5% BSA (Sigma-Aldrich Corp., St. Louis, Mo.) for one hour at room temperature. In a separate plate, purified anti-Ang-2 antibodies and control constructs, at a starting concentration of 300 nM, were serially diluted by a factor of three across the plate. Full-length human Ang-2 or Ang-1 protein conjugated to 6× histidine tag (R&D Systems, Minneapolis, Minn.) were added to a final concentration of 0.6 nM and incubated for one hour at room temperature. The antibody/antigen mixture was then added to the plate containing hTie-2-mFc and incubated for one hour at room temperature. Detection of Ang-2-His or Ang-1-His bound to hTie-2-mFc protein was determined with Horse-Radish Peroxidase (HRP) conjugated to a-Penta-His antibody (Qiagen, Valencia, Calif.) and developed by standard colorimetric response using tetramethylbenzidine (TMB) substrate (BD Biosciences, San Jose, Calif.). Absorbance was read at OD450 for 0.1 sec. […]

T2 sequence (O15123 with tags, fused parts or gaps N467G): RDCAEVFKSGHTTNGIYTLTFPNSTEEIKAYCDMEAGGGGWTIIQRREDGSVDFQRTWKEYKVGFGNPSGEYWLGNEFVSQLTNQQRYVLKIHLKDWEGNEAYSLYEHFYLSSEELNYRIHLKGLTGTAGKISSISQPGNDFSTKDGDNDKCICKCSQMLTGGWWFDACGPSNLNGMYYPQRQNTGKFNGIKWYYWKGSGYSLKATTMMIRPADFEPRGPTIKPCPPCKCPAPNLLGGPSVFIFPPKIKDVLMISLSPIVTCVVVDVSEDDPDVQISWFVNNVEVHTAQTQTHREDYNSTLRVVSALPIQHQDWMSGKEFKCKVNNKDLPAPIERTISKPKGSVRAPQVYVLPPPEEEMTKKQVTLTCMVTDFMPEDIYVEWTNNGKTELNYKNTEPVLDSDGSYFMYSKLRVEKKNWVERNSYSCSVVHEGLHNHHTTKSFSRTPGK
Sequence of Dimeric Monkey Ang-2FD-hFc (as listed by the source): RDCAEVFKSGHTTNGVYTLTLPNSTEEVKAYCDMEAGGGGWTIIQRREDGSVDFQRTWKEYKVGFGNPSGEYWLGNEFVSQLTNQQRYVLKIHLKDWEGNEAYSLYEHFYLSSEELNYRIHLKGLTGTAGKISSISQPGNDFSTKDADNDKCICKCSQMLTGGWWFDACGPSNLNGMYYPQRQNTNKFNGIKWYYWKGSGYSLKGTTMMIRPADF

H1H685P: human anti-Ang-2 antibody, HCVR/LCVR SEQ ID NOs 18/20; also referred to as mAb1 [Antibody H1H685P]
Kd (Dimeric Human Ang-2FD): 71.4 pM
Kd (hAng-2FD-mFc N-467-G): 9.38 pM
RU (hAng-2FD-mFc N-467-G): 152.25 RU
Kd ([1]; 25° C.): 22 pM
Kd ([1]; 37° C.): 72.1 pM
IC50 [2]: > 300000 pM
